Data set [1] concerns the target T1, chymase (recombinant, manufactured by SIGMA) (Homo sapiens, UniProt P23946).
T1 construct: purchased SIGMA; host or cells: yeast
T1 sequence (P23946 22-247): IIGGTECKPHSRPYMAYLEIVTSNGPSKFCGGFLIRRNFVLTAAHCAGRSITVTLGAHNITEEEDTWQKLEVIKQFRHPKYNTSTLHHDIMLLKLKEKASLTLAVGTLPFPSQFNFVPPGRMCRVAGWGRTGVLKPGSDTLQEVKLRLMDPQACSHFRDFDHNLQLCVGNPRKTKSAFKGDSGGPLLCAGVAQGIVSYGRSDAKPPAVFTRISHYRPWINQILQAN
The experiment in a line: Surface plasmon resonance (Biacore T100), chymase immobilized on CM5 chip, nucleic acid injected as analyte. It is filed as binding. Further details: key to Binding activity as determined using Biacore: ++: a sequence that binds to chymase significantly more strongly than the negative control 40N; +: a sequence that binds to chymase equivalently compared with the negative control 40N; key to binding activity using Biacore: ++: significant binding to chymase than SEQ ID NO: 58 which is a negative control; +: similar binding level as SEQ ID NO: 58 which is a negative control. To be noted: for binding activity using Biacore: Table 5, same manner as Example 4, compared with SEQ ID NO: 58; for Binding activity as determined using Biacore: Table 4, about 4000 RU chymase immobilized, nucleic acid 0.3 μM, solution C, compared with 40N. The method, then:
In another method, chymase is first immobilized onto a sensor chip, the amount immobilized being about 4000 RU. 20 μL of an aptamer solution for analyte, prepared at 0.01 μg/μL, is injected, and the binding of the aptamer to chymase is detected. An RNA containing a random nucleotide sequence of 30 or 40 nucleotides is used as a negative control.
Whether these nucleic acids bind to chymase was determined by the surface plasmon resonance method. Measurements were taken using Biacore T100 (manufactured by GE Healthcare) as described below. About 4000 RU of chymase (recombinant, manufactured by SIGMA) was immobilized on the sensor chip surface of a CM5 chip, using an amine coupling kit. 20 μL of each nucleic acid, prepared at 0.3 μM, as an analyte was injected at a flow rate of 20 μL/min. Solution C was used as a running buffer. The method of evaluation used was the same as Example 1.
All nucleic acids of SEQ ID NO: 58-68 were prepared by chemical synthesis. Whether these nucleic acids are bound to chymase was assessed by surface plasmon resonance method in the same manner as in Example 4. The inhibitory activity on chymase was measured in the same manner as in Example 3.
All nucleic acids of SEQ ID NOs: 73-79, 56(8), 80, 56(10), 81, 56(13)-56(14), 83-87 were prepared by chemical synthesis. Whether these nucleic acids are bound to chymase was assessed by surface plasmon resonance method in the same manner as in Example 4.
All nucleic acids of SEQ ID NO: 88-120, 121, 69, 122, 123, 70-72, 124-131 were prepared by chemical synthesis. Whether these nucleic acids are bound to chymase was assessed by surface plasmon resonance method in the same manner as in Example 4.
In general terms: SPR reads the build-up and loss of mass on a sensor chip optically.

Data set [2] deals with T1, chymase (recombinant, manufactured by SIGMA). Briefly: Chymase inhibitory activity using synthetic substrate Suc-Ala-Ala-Pro-Phe-MCA. The format is biochemical. How it is done: A first method employs a synthetic substrate. A useful chymase substrate is Suc-Ala-Ala-Pro-Phe-MCA (4-methylcoumaryl-7-amide group) (manufactured by Peptide Institute, Inc.), which contains the 4-amino acid peptide “Ala-Ala-Pro-Phe”, a standard substrate for chymotrypsin-like proteases.
The assay is performed using a 96-well plate (F16 Black Maxisorp Fluoronunc, manufactured by Nunc), with a reaction mixture volume of 100 μL, in a buffer solution (solution C; see Example 2 below). First, each nucleic acid is prepared in solution C to obtain 50 μL solutions. After 10 μL of the 1 mM substrate prepared in solution C is added, the plate is set to the microplate reader SpectraMax190 (manufactured by Molecular Devices Corporation), and incubated at 37° C. for 5 minutes. Separately, 0.05 μg of chymase (recombinant, manufactured by SIGMA) is diluted in solution C, and 40 μL of this dilution is incubated at 37° C. for 5 minutes. The chymase solution is added to the mixture of the nucleic acid and substrate to initiate an enzyme reaction. The plate containing the reaction mixture is set to the microplate reader SpectraMax190 (manufactured by Molecular Devices Corporation), and examined for time-dependent changes in the fluorescence intensity at 37° C. for 5 minutes (excitation wavelength 380 nm, detection wavelength 460 nm). A linear approximation of the increase in the fluorescence of the AMC (7-amino-4-methylcoumarine) released from the substrate by chymase activity is generated, and its slope is taken as the initial reaction velocity. For control, samples are treated and analyzed in the same manner in two cases: use of a nucleic acid pool containing a random sequence of 30 or 40 nucleotides (negative control), and use of chymostatin, a known chymotrypsin-like serine protease inhibitor (positive control). Taking the initial reaction velocity without the nucleic acid and inhibitor as a 100% enzyme activity, the inhibitory rate for each test substance is calculated, and the inhibitor concentration required to cause a 50% inhibition of the enzyme activity (IC50) is determined.
Whether the nucleic acids shown by SEQ ID NO: 4-20, 22-34, and 38-48 inhibit the enzyme activity of chymase was determined as described below. The chymase substrate used was Suc-Ala-Ala-Pro-Phe-MCA (manufactured by Peptide Institute, Inc.), which contains the 4-amino-acid peptide Ala-Ala-Pro-Phe, a standard substrate for chymotrypsin-like proteases. Here, Suc is a protecting succinyl group, and MCA is a 4-methylcoumaryl-7-amide group; upon cleavage of the C-terminal side of phenylalanine, AMC (7-amino-4-methylcoumarine) is released. By detecting the fluorescence of this AMC, the enzyme activity of chymase can be determined. The assay was performed using a 96-well plate (F16 Black Maxisorp Fluoronunc, manufactured by Nunc), with a reaction mixture volume of 100 μL, in solution C as a buffer solution. First, each nucleic acid was serially diluted to 0.0027-2 μM concentrations in solution C to obtain 50 μL solutions. After 10 μL of the 1 mM substrate prepared in solution C was added thereto, the plate was set to the microplate reader SpectraMax190 (manufactured by Molecular Devices Corporation), and incubated at 37° C. for 5 minutes. Separately, 0.05 μg (or 0.005 μg) of chymase (recombinant, manufactured by SIGMA) was diluted in solution C to obtain a 40 μL chymase solution, and incubated at 37° C. for 5 minutes. The chymase solution was added to the mixture of the nucleic acid and substrate to initiate an enzyme reaction. The final chymase concentration in the reaction mixture was 16.7 nM (or 1.67 nM), the final substrate concentration being 100 μM. The plate containing the reaction mixture was set to the microplate reader SpectraMax190 (manufactured by Molecular Devices Corporation), and examined for time-dependent changes in the fluorescence intensity at 37° C. for 5 minutes (or 30 minutes) (excitation wavelength 380 nm, detection wavelength 460 nm). […]

The target in another data set is T2, chymase (Homo sapiens, UniProt P23946).
T2 sequence (P23946 22-247): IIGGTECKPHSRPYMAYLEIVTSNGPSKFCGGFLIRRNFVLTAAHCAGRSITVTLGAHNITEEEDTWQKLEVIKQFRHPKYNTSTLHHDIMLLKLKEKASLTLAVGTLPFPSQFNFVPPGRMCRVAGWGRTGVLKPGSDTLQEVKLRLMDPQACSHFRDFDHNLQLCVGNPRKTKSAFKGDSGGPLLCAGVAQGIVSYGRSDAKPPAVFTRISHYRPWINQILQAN
Briefly: Surface plasmon resonance (Biacore T100), aptamer immobilized on SA chip, chymase injected as analyte. It is filed as binding. Further details: key: ++: a sequence that binds to chymase significantly more strongly than the negative control 40N; +: a sequence that binds to chymase equivalently compared with the negative control 40N. As to conditions: Table 1; about 1000 RU nucleic acid immobilized, chymase 0.2 μM analyte, running buffer solution A; compared with 40N. How it is done: Binding strength is measured using Biacore T100 (manufactured by GE Healthcare). In a method of measurement, the aptamer is first immobilized onto a sensor chip, the amount immobilized being about 1000 RU. 20 μL of a chymase solution for analyte, prepared at 0.2 μM, is injected, and the binding of chymase to the aptamer is detected. An RNA comprising a random nucleotide sequence of 30 or 40 nucleotides is used as a negative control.
The binding activities against chymase of the nucleic acids shown by SEQ ID NO: 4-20 and 22-34 were determined by the surface plasmon resonance method using Biacore T100 (manufactured by GE Healthcare). The sensor chip used was the SA chip, which had streptavidin immobilized thereon. Bound thereto was about 1500 RU of a 16-nucleotide Poly dT with biotin bound to the 5′ end thereof. […] 20 μL of chymase for analyte, prepared at 0.2 μM, was injected. Solution A was used as a running buffer.
The binding activities against chymase of the nucleic acids shown by SEQ ID NO: 38-48 were evaluated by the surface plasmon resonance method. In the evaluations for SEQ ID NO: 38-48, measurements were taken in the same manner as Example 1. Solution C was used as a running buffer.

Setting [3] is: Table 5, same manner as Example 3, mean value of two measurements.
[4] abbreviates: Table 4, same manner as Example 3, mean value for 2 to 3 measurements.
Setting [5] is: Table 3, substrate 100 μM, solution C, 37° C., mean value for 2 to 3 measurements.

Oligonucleotides are written 5' to 3', each unit as a sugar letter and its base; * is a phosphorothioate linkage, no mark a phosphodiester; rarer units and linkages stand in square brackets, end groups in braces. Plain capitals give the bases only. r = 2'-OH (RNA); f = 2'-fluoro Some results are limits rather than exact numbers.

Broadly, the IC50 is the midpoint of a concentration-inhibition curve. For the molecule “62 (GGGUUGGAUAGAGUUAAGAACCC; 2'-fluoro at CU, RNA at AG, backbone not given here) [compound 62]”, the “binding activity using Biacore” value in data set [1] is listed as “++”. For the same molecule, the concentration for half-maximal inhibition (IC50) in data set [2] (setting [3]) amounted to 29 ± 4 nM.
As for “52 (CCGUAUAUACCAGGGUAACUAAACGG; 2'-fluoro at CU, RNA at AG, backbone not given here) [compound 52]”, the “Binding activity as determined using Biacore” value (shortened to “Binding activity as determined”) in data set [1] is given as “+”. For the same molecule, the half-inhibitory concentration (IC50) in data set [2] (setting [4]) was > 1000 nM.
The corresponding values for “50 (GGCAUUCUACAGAUAGAGAUAAAGUAGAAUUUAAC; 2'-fluoro at CU, RNA at AG, backbone not given here) [compound 50]” are “++” and 138 ± 93 nM.
The corresponding values for “51 (CGUUACAUAAUGUAUAUACCAGGGUAACUAAACAUAGAAGAGCGG; 2'-fluoro at CU, RNA at AG, backbone not given here) [compound 51]” are “++” and 24 ± 9 nM.
As for “67 (GGGUUAGAUACAGUUAAAAACCC; listed as RNA, chemistry not fully specified) [compound 67]”, in data set [1], the “binding activity using Biacore” value is listed as “+”. Also, in data set [2] (setting [3]), the IC50 was > 1000 nM.
For “68 (GGGUUAGAUAGUGUUAAAAACCC; listed as RNA, chemistry not fully specified) [compound 68]”, in that order: “+” and > 1000 nM.

B1: 5 (nucleic acid)
chain: rGrGrGrAfCrGrGfUrArGrGrArAfUfUfCfCfCrAfCfUfUrGfUfCfUfUfUrGrArGrGfCrArArGrArArAfUfUrGfUrAfUfUfCfCrGrArArGrArArGfCrAfUrArGrArArGrArGfCrGrGfCfCrGfC
modifications: aptamer
For the molecule B1, the IC50 in data set [2] (setting [5]) was 80 ± 39 nM. The “Binding activity as determined” value with chymase was “++”.

B2: 33 (nucleic acid)
chain: rGrGrGrAfCrGrGfUrArGrGrArAfUfUfCfCfUrGfUfCfUfUfUfUfCfCfCrAfCrGfCrArAfCrArArAfUfUrAfCrArGrArGfCfUfUfUrGfCrArArArAfCrAfUrArGrArArGrArGfCrGrGfCfCrGfC
modifications: aptamer
For B2, in data set [2] (setting [5]), the IC50 worked out at 145 ± 88 nM. For the same molecule, the “Binding activity as determined” value in the data set with chymase was “+”.

B3: 34 (nucleic acid)
chain: rGrGrGrAfCrGrGfUrArGrGrArAfUfUfCfUrGfCfCrGfCrArAfCfCfCrArAfUrGrArArArAfCrGrArArGrAfUrArGrArGrAfUrArArAfUfCrGrArAfCrAfUrArGrArArGrArGfCrGrGfCfCrGfC
modifications: aptamer
Consider B3, for which the IC50 in data set [2] (setting [5]) was found to be 137 ± 9 nM. The “Binding activity as determined” value with chymase was “+”.

B4: 32 (nucleic acid)
chain: rGrGrGrAfCrGrGfUrArGrGrArAfUfUfCrGfUfCfCfUfCrAfUrGfUfCfUrAfUfUfUfUrGfCrArGrAfUrArGrAfCfUfUrArArArGfCrArArAfCrAfUrArGrArArGrArGfCrGrGfCfCrGfC
With B4, in data set [2] (setting [5]), the IC50 stood at 235 ± 55 nM. Further, the “Binding activity as determined” value in the data set with chymase is reported as “+”.

B5: 6 (nucleic acid)
chain: rGrGrGrAfCrGrGfUrArGrGrArAfUfUfCfUrAfCrGrGfUfCfUrGfUrGfUrGrArArAfUfUrGrArArAfCrAfCrAfCrArArArGrArAfCrArAfUrArGrAfCrAfUrArGrArArGrArGfCrGrGfCfCrGfC
modifications: aptamer
Consider B5, for which, in data set [2] (setting [5]), the half-inhibitory concentration (IC50) was determined as 456 ± 261 nM. For the same molecule, the “Binding activity as determined” value in the data set with chymase was “++”.

B6: 31 (nucleic acid)
chain: rGrGrGrAfCrGrGfUrArGrGrArAfUfUfCrGfUfCfCfCfUfCrAfUrGfUfCfUrAfUfUfUfUrGfCrArGrAfUrArGrAfCfUfUrArArArGfCrArArAfCrAfUrArGrArArGrArGfCrGrGfCfCrGfC
With B6, in data set [2] (setting [5]), the IC50 turned out to be 155 ± 39 nM. For the same molecule, the “Binding activity as determined” value in the data set with chymase is given as “+”.

B7: 7 (nucleic acid)
chain: rGrGrGrAfCrGrGfUrArGrGrArAfUfUfCrAfCfCfUfUfUfCfCrArAfUfUrGfUrGrArArArGrArArAfCrAfCrArArArArArGrArArAfUrGrAfCrAfUfCrAfUrArGrArArGrArGfCrGrGfCfCrGfC
modifications: aptamer
With B7, in data set [2] (setting [5]), the 50% inhibitory concentration (IC50) is > 500 nM. Also, in the data set with chymase, the “Binding activity as determined” value is recorded as “++”.

The values are drawn from US9012420B2, “Aptamer for chymase, and use thereof” (Ribomic Inc., priority 2009, dated 2015).
